Measurements from patent US20210292426A1.

Columns and labels:
[1] = target: human CD40 extracellular domain with C-terminal His-AviTag (human) (UniProt P25942); assay: SPR (Biacore), antibody captured, CD40 ECD analyte
[2] = target: human CD40 expressed on cells (human) (UniProt P25942); assay: flow cytometry, Raji cells
[3] = target: human CD40 expressed on cells (human) (UniProt P25942); assay: flow cytometry, primary human B cells

- Kd [1]: 4.6 nM
- koff [1]: 0.00781 s⁻¹
- kon [1]: 1.69e+06 M⁻¹ s⁻¹
- EC50 [2]: 0.09 µg/mL
- EC50 [3]: 0.333 nM
B1: P1AD4470 (CD40 IgG1, control) (antibody, from a related filing, V domains shown)
VH: EVQLVESGGGLVQPGGSLRLSCAASGYSFTGYYIHWVRQAPGKGLEWVARVIPNAGGTSYNQKFKGRFTLSVDNSKNTAYLQMNSLRAEDTAVYYCAREGIYWWGQGTLVTVSS
VL: DIQMTQSPSSLSASVGDRVTITCRSSQSLVHSNGNTFLHWYQQKPGKAPKLLIYTVSNRFSGVPSRFSGSGSGTDFTLTISSLQPEDFATYFCSQTTHVPWTFGQGTKVEIKR
